In IntAct's records for PubMed 23245941:

B1: Transcriptional coactivator YAP1 (Homo sapiens), P46937-3 (parent)
chain: MDPGQQPPPQPAPQGQGQPPSQPPQGQGPPSGPGQPAPAATQAAPQAPPAGHQIVHVRGDSETDLEALFNAVMNPKTANVPQTVPMRLRKLPDSFFKPPEPKSHSRQASTDAGTAGALTPQHVRAHSSPASLQLGAVSPGTLTPTGVVSGPAATPTAQHLRQSSFEIPDDVPLPAGWEMAKTSSGQRYFLNHIDQTTTWQDPRKAMLSQMNVTAPTSPPVQQNMMNSASAMNQRISQSAPVKQPPPLAPQSPQGGVMGGSNSNQQQQMRLQQLQMEKERLRLKQQELLRQVRPQELALRSQLPTLEQDGGTQNPVSSPGMSQELRTMTTNSSDPFLNSGTYHSRDESTDSGLSMSSYSVPRTPDDFLNSVDEMDTGDTINQSTLPSQQNRFPDYLEAIPGTNVDLGTLEGDGMNIEGEELMPSLQEALSSDILNDMESVLAATKLDKESFLTWL

Variants of: B1
Conditions: with ctnb1_human CTNNB1, P35222
ctnb1_human CTNNB1, P35222, sequence (P35222 whole entry): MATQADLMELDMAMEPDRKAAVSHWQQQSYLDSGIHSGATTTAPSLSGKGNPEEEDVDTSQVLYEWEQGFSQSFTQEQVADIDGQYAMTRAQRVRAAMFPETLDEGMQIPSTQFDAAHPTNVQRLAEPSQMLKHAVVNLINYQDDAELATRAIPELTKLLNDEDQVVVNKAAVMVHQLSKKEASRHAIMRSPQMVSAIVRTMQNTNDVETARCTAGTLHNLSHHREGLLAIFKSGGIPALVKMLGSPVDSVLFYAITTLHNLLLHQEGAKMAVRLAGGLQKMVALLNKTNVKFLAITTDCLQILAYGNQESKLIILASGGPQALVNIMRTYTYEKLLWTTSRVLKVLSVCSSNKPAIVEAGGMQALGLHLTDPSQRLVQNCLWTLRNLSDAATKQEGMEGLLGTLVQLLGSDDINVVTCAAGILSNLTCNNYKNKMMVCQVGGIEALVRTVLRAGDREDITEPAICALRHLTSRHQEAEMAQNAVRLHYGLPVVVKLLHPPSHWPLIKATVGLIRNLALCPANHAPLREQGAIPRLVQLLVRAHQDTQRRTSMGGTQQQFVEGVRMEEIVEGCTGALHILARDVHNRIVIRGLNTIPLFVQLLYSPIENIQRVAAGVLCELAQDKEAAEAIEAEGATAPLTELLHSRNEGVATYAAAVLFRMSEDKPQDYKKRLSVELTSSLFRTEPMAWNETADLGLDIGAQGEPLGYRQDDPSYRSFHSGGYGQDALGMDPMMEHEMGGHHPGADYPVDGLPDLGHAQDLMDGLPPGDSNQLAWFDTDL
In the case of Y357F, the “effect of a mutation on the interaction” value is reported as “increasing interaction strength”.
